Tests used:
HLA-A0201 on T2 cells [1] = molecular target: T1, HLA-A0201 on T2 cells (human); assay: T2 cell peptide binding assay, fluorescence index = (MFI sample - MFI background)/MFI background, peptide 100 uM
T1 construct: MHC class I on TAP-deficient T2 cells; also called HLA-A2; HLA-A0201 molecule
Procedure: (§1) Cells were collected by centrifugation of the cell culture at 200 g for 5 minutes. The collected cells were washed twice with PBS, and then directly incubated with FITC-conjugated anti-HLA-A0201 monoclonal antibody at 4° C. for 30 minutes. The mean fluorescence intensity (MFI) was then detected and analyzed by flow cytometer (BD FACSJazz™) and its software. The fluorescence index (FI) was calculated by using the following formula:

HLA-A0201 on T2 cells [2] = molecular target: T1, HLA-A0201 on T2 cells; assay: T2 cell peptide binding assay, flow cytometry with FITC anti-HLA-A0201, peptide 100 uM
Procedure: as §1

| Binder | FI (HLA-A0201 on T2 cells [1]) | Average fluorescence intensity (HLA-A0201 on T2 cells [2]) |
| --- | --- | --- |
| FMVDGSWSI (Synthetic peptide, purity >90%) [wild-type peptide FMVDGSWSI] | 2.38 | 772 |
| FLVDGFWSI (Synthetic peptide) [variant peptide FLVDGFWSI] | 2.07 | 701 |
| FLVDGFWSL (Synthetic peptide) [variant peptide FLVDGFWSL] | 1.91 | 664 |

The next lines start with the values.

| FI (HLA-A0201 on T2 cells [1]) | Average fluorescence intensity (HLA-A0201 on T2 cells [2]) | Binder |
| --- | --- | --- |
| 2.16 | 721 | FMVDGFWSV (Synthetic peptide) [variant peptide FMVDGFWSV] |
| 2.28 | 748 | FMVDGFWSL (Synthetic peptide) [variant peptide FMVDGFWSL] |
| 1.81 | 642 | FLVDGFWSV (Synthetic peptide) [variant peptide FLVDGFWSV] |

Reference: patent publication US20190224291A1 (GENOIMMUNE THERAPEUTICS, published 2019)
